Here are results for 5 molecules from patent US20240059769A1 (BIOLOJIC DESIGN, published 2024).

Experiment [1] concerns the target T1, recombinant human IL-13 (human, UniProt P35225 35-146).
T1 construct: also called rh-IL-13; hIL-13
Nature of the experiment: SPR. A general note: SPR reads the build-up and loss of mass on a sensor chip optically.

Experiment [2] addresses T2, human TSLP (human, UniProt Q969D9 29-159).
T2 construct: also called hTSLP; rhTSLP
Nature of the experiment: SPR.

Experiment [3] addresses T3, recombinant cynomolgus monkey IL-13 (cynomolgus monkey, UniProt Q0PW92 21-132).
T3 construct: bought; also called rc-IL-13; cIL-13
Nature of the experiment: SPR.

Experiment [4] concerns the target T4, cynomolgus monkey (cyno) TSLP (cynomolgus monkey, UniProt A0A7N9CAT7 29-159).
T4 construct: also called cTSLP; cynomolgus TSLP
Nature of the experiment: SPR.

For experiment [5], the target named is T1, recombinant human IL-13. Nature of the experiment: cell-based or functional assay.
Experiment [6] has as its target T2, human TSLP. Nature of the experiment: cell-based or functional assay.
Experiment [7] addresses T5, hTSLP-His (human, UniProt Q969D9 29-159, limits assumed). Nature of the experiment: cell-based or functional assay.
The target in experiment [8] is T1, recombinant human IL-13. Nature of the experiment: cell-based or functional assay. The source holds these as a separate data set.
Experiment [9] deals with T2, human TSLP. Kind of experiment: SPR (Biacore), antibody captured on anti-human Fc chip, hTSLP as analyte, multi-cycle, 1:1 binding model.
Experiment [10] addresses T6, hIL-13-His (human, UniProt P35225 35-146).
T6 construct: bought; also called human IL-13 (Acro Biosystems IL3-H52H4); not shown: His tag
Kind of experiment: SPR (Biacore), antibody captured on anti-human Fc chip, hIL-13 as analyte, multi-cycle, 1:1 binding model.

Experiment [11] concerns the target T1, recombinant human IL-13. Nature of the experiment: SPR. This is another data set of the same source.
In experiment [12] the target is T2, human TSLP. Nature of the experiment: SPR. The source holds these as a separate data set.
Experiment [13] addresses T5, hTSLP-His. Kind of experiment: competition ELISA, 7 nM TSLP-His pre-incubated with antibody; competitor Tezepelumab coated. In general terms: ELISA stands for enzyme-linked immunosorbent assay.
Experiment [14] has as its target T5, hTSLP-His. Nature of the experiment: competition ELISA: antibody titrated and pre-incubated with 7 nM TSLP-His, then on a plate coated with 33.001 (Tezepelumab), anti-His detection; row head on the sheet reads EC50, unit from the axis.
Experiment [15] deals with T1, recombinant human IL-13. Kind of experiment: SPR. This is another data set of the same source.
In experiment [16] the target is T2, human TSLP. Nature of the experiment: SPR. This is another data set of the same source.
Experiment [17] deals with T3, recombinant cynomolgus monkey IL-13. Nature of the experiment: SPR. The source holds these as a separate data set.
For experiment [18], the target named is T4, cynomolgus monkey (cyno) TSLP. Kind of experiment: SPR. This is another data set of the same source.
The target of experiment [19] is T5, hTSLP-His. Kind of experiment: cell-based or functional assay. The source holds these as a separate data set.
In experiment [20] the target is T1, recombinant human IL-13. Kind of experiment: SPR (Biacore T200), antibody captured, hIL-13 as analyte 0.35-5.93 nM.
The target in experiment [21] is T2, human TSLP. Nature of the experiment: SPR (Biacore T200), antibody captured, hTSLP as analyte 0.231-5.926 nM.
In experiment [22] the target is T5, hTSLP-His. Nature of the experiment: competition ELISA: antibody titrated and pre-incubated with 7 nM TSLP-His, then on a plate coated with 33.001 (Tezepelumab), anti-His detection; row head on the sheet reads EC50, unit from the axis. This is another data set of the same source.
Experiment [23] deals with T1, recombinant human IL-13. Kind of experiment: SPR (Biacore T200), antibody captured, hIL-13 as analyte 0.35-8.89 nM.
In experiment [24] the target is T2, human TSLP. Nature of the experiment: SPR (Biacore T200), antibody captured, hTSLP as analyte 0.231-5.926 nM. The source holds these as a separate data set.
Experiment [25] concerns the target T5, hTSLP-His. Nature of the experiment: competition ELISA: antibody titrated and pre-incubated with 7 nM TSLP-His, then on a plate coated with 33.001 (Tezepelumab), anti-His detection; row head on the sheet reads EC50, unit from the axis. This is another data set of the same source.

Like-named read-outs stand apart in the source and are kept apart here.

T4 sequence (A0A7N9CAT7 entry or part of it): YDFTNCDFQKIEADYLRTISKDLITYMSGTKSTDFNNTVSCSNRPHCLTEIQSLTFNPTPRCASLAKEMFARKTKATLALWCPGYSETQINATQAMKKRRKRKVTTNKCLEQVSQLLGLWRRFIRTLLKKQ
T6 sequence (P35225 35-146 limits assumed): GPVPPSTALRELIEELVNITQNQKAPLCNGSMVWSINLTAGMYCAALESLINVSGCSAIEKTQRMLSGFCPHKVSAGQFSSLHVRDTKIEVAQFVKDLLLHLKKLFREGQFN
T1 sequence (P35225 35-146 limits assumed): as above
T3 sequence (Q0PW92 entry or part of it): as the sequence (P35225 35-146 limits assumed) above, with G1S, R10K, M42V, S67N, H83R, L100V counted along it

B1: BDG38.138 (antibody, human IgG1, lambda, L234A L235A)
heavy: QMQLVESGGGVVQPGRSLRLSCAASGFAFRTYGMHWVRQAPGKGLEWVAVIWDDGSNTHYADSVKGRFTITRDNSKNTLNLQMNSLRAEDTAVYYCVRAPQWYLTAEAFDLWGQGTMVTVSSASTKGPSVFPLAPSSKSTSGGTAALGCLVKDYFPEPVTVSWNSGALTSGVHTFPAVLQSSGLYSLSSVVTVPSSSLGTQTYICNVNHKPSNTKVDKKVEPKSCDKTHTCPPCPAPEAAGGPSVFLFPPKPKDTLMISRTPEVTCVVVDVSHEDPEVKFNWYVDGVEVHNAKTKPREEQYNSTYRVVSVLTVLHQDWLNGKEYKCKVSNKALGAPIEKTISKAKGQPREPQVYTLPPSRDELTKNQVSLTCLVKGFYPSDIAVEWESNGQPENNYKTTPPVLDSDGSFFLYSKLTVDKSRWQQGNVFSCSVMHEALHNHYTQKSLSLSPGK
light: SYVLTQPPSVSVAPGETASITCGGNMIGGYLVHWYQQKPGQAPVLVIYDDVDRPSRIPERFSGSNSGNTATLTISRVEAGDEADYYCQVWDHNSNHMVFGGGTKLTVLGQPKAAPSVTLFPPSSEELQANKATLVCLISDFYPGAVTVAWKADSSPVKAGVETTTPSKQSNNKYAASSYLSLTPEQWKSHRSYSCQVTHEGSTVEKTVAPTECS
notes: human IgG1 L234A/L235A/P329G (LALAPG); also called hIgG1 LALAPG; hIgG1 LALA-PG
For the molecule B1, the Kd (commonly the constant that tells how readily two partners part at equilibrium) in [1] was 0.0134 nM; in [2], 2.85 pM; in experiment [3] it was 0.849 nM; in experiment [4] it was 1.35 pM; in experiment [9] it was 6.61 pM; in experiment [10] it was 0.0523 nM. Besides, the koff (in general, a measure of how fast the partners let go of each other) turned out to be 0.00016 s⁻¹ in experiment [1]; 4.28e-05 s⁻¹ in [2]; 0.00653 s⁻¹ in experiment [3]; 1.85e-05 s⁻¹ in experiment [4]; 0.000212 s⁻¹ in [9]; 0.000455 s⁻¹ in experiment [10]. Besides, the kon (as a rule, a measure of how fast the partners come together) in experiment [1] amounted to 1.19e+07 M⁻¹ s⁻¹; in experiment [2] it was 1.5e+07 M⁻¹ s⁻¹; in experiment [3], 7.7e+06 M⁻¹ s⁻¹; in experiment [4], 1.37e+07 M⁻¹ s⁻¹; in [9], 3.2e+07 M⁻¹ s⁻¹; in experiment [10] it was 8.7e+06 M⁻¹ s⁻¹. Besides, in experiment [5], the “IC50 CD23” value came out at 0.164 nM. Further, in experiment [6], the “IC50 TARC” value was found to be 2.36 nM. Besides, the “IC50 [pM], STAT5 phosphorylation inhibition in MUTZ5 cells” value in [7] was 45.2 pM. Further, the “HEK-IL-13 [nM] (IC50, STAT6 reporter)” value in experiment [8] is 0.0286 nM.

B2: BDG38.083 (antibody, V domains shown)
VH: QMQLVESGGGVVQPGRSLTLSCAASGFEFRTYGMHWVRQAPGKGLEWVGVIWDDGSNTHYADSVKGRFTITRDNSKNTLNLQMNSLRAEDTAVYYCARAPQWYLTAEAFDLWGQGTMVTVSS
VL: SYILTQPPSVSVAPGQTATITCGGNLIGAKLVHWYQQKPGQAPVLVIYDDSDRPSRIPERFSGSNIGNTATLTISDVEEGDEADYYCQVWDYSSDTMVFGGGTKLTVL
notes: IgG1
With B2, in experiment [11], the Kd is 0.0565 nM, the koff stood at 0.000401 s⁻¹ and the kon was 7.09e+06 M⁻¹ s⁻¹. In experiment [12], this molecule registered a Kd of 0.0983 nM, a koff of 0.000241 s⁻¹ and a kon of 2.45e+06 M⁻¹ s⁻¹. In addition, in experiment [5], the “IC50 CD23” value is 0.0215 nM. Moreover, in experiment [6], the “IC50 TARC” value was determined as 11.4 nM. Further, the “HEK-IL-13 [nM] (IC50, STAT6 reporter)” value in experiment [8] came out at 0.0419 nM. For the same molecule, the IC50 (commonly the concentration at which inhibition is half-maximal) in experiment [13] is 3.33 nM. Besides, the IC50 in [14] was 3.33 nM.

B3: BDG38.074 (antibody, V domains shown)
VH: QMQLVESGGGVVQPGRSLRLSCAASGFAFRTYGMHWVRQAPGKGLEWVAVIWDDGSNTHYADSVKGRFTITRDNSKNTLNLQMNSLRAEDTAVYYCVRAPQWYLTAEAFDLWGQGTMVTVSS
VL: SYVLTQPPSVSVAPGQTATITCGGNMIGAYLVHWYQQKPGQAPLLVVYDDVDRPNRIPERFSGSNSGNTATLTISRVEAGDEADYYCQVWDHNTDKMVFGGGTKLTVL
notes: also called BDG38.74
Consider B3, for which the dissociation constant (Kd) in [15] was 0.0295 nM; in experiment [16], 3.34 pM; in experiment [17] it was 0.733 nM; in [18] it was 4.16 pM; in [20], 0.0295 nM; in [21], 3.34 pM. The koff in [15] was determined as 0.000249 s⁻¹; in experiment [16], 5.05e-05 s⁻¹; in experiment [17], 0.00644 s⁻¹; in experiment [18], 4.6e-05 s⁻¹; in [20], 0.000249 s⁻¹; in experiment [21] it was 5.05e-05 s⁻¹. The kon is 8.43e+06 M⁻¹ s⁻¹ in experiment [15]; 1.51e+07 M⁻¹ s⁻¹ in [16]; 8.78e+06 M⁻¹ s⁻¹ in experiment [17]; 1.11e+07 M⁻¹ s⁻¹ in experiment [18]; 8.43e+06 M⁻¹ s⁻¹ in experiment [20]; 1.51e+07 M⁻¹ s⁻¹ in experiment [21]. For the same molecule, in experiment [19], the “IC50, pSTAT5 in MUTZ-5 cell line” value is approximately 35 pM. For the same molecule, the “IC50 CD23” value in experiment [5] turned out to be 0.158 nM. Further, in experiment [6], the “IC50 TARC” value stood at 2.77 nM. In experiment [7], the “IC50 [pM], STAT5 phosphorylation inhibition in MUTZ5 cells” value was 46.7 pM. Also, the “HEK-IL-13 [nM] (IC50, STAT6 reporter)” value in experiment [8] is 0.0241 nM. Further, the half-inhibitory concentration (IC50) in experiment [13] and in [22] was 3.66 nM each time.

B4: BDG38.079 (antibody, V domains shown)
VH: QMQLVESGGGVVQPGRSLRLSCAASGFAFRTYGMHWVRQAPGKGLEWVAVIWYDGSNTHYADSVKGRFTITRDNSKNTLNLQMNSLRAEDTAVYYCVRAPQWYLTAEAFDLWGQGTMVTVSS
VL: SYVLTQPPSVSVAPGETATITCGGNMIGGYLVHWYQQKPGQAPLLVIYDDVDRPDRIPERFSGSNSGNTATLTISRVEAGDEADYYCQVWDHDSNTMVFGGGTKLTVL
Turning to B4, the dissociation constant (Kd) in experiment [15] is 0.0317 nM; in [16], 2.21 pM; in [17], 0.901 nM; in experiment [18], 3.97 pM; in experiment [23], 0.0317 nM; in experiment [24], 2.21 pM. Moreover, the koff in experiment [15] came to 0.000385 s⁻¹; in experiment [16] it was 3.27e-05 s⁻¹; in experiment [17] it was 0.0141 s⁻¹; in [18] it was 4.08e-05 s⁻¹; in experiment [23] it was 0.000385 s⁻¹; in [24] it was 3.27e-05 s⁻¹. Also, the on-rate (kon) in experiment [15] was 1.22e+07 M⁻¹ s⁻¹; in experiment [16] it was 1.48e+07 M⁻¹ s⁻¹; in experiment [17] it was 1.56e+07 M⁻¹ s⁻¹; in experiment [18] it was 1.03e+07 M⁻¹ s⁻¹; in [23], 1.22e+07 M⁻¹ s⁻¹; in experiment [24] it was 1.48e+07 M⁻¹ s⁻¹. The “IC50, pSTAT5 in MUTZ-5 cell line” value in [19] was approximately 13 pM. The “IC50 CD23” value in [5] amounted to 0.0718 nM. Further, the “IC50 TARC” value in experiment [6] is 1.96 nM. In experiment [7], the “IC50 [pM], STAT5 phosphorylation inhibition in MUTZ5 cells” value is 21.8 pM. Also, in experiment [8], the “HEK-IL-13 [nM] (IC50, STAT6 reporter)” value worked out at 0.0253 nM. In addition, the half-maximal inhibitory concentration (IC50) in experiment [13] and in experiment [25] was 3.63 nM throughout.

B5: BDG38.081 (antibody, V domains shown)
VH: QMQLVESGGGVVQPGRSLRLSCAASGFAFRTYGMHWVRQAPGKGLEWVAVIWDDGSNTHYADSVKGRFTITRDNSKNTLNLQMNSLRAEDTAVYYCVRAPQWYLTAEAFDLWGQGTMVTVSS
VL: SYVLTQPPSVSVAPGQTARITCGGNMIGAYLVHWYQQKPGQAPLLVIYDDVDRPDRIPERFSGSNSGNTATLTISRVEAGDEADYYCQVWDHNTQQMVFGGGTKLTVL
notes: IgG1
Regarding B5, the Kd in experiment [11] worked out at 0.0509 nM; in experiment [12], 0.0692 nM; in experiment [3], 0.844 nM; in experiment [4], 4.87 pM. The koff was 0.000872 s⁻¹ in [11], 0.000125 s⁻¹ in experiment [12], 0.00675 s⁻¹ in [3] and 4.36e-05 s⁻¹ in [4]. In addition, the kon in experiment [11] turned out to be 1.71e+07 M⁻¹ s⁻¹; in experiment [12], 1.81e+06 M⁻¹ s⁻¹; in experiment [3], 8e+06 M⁻¹ s⁻¹; in [4], 8.96e+06 M⁻¹ s⁻¹. The “IC50 CD23” value in experiment [5] was determined as 0.0339 nM. Further, the “IC50 TARC” value in [6] worked out at 5.93 nM. The “IC50 [pM], STAT5 phosphorylation inhibition in MUTZ5 cells” value in experiment [7] turned out to be 38.7 pM. The “HEK-IL-13 [nM] (IC50, STAT6 reporter)” value in [8] stood at 0.0483 nM. Moreover, the figures for the IC50 in experiment [13] and in experiment [14] were 2.2 nM and 2.21 nM, respectively.
